Target: hGIPR (human) (UniProt P48546)
Experiment: cell-based or functional assay

Chain of hGIPR (human) (P48546 22-466): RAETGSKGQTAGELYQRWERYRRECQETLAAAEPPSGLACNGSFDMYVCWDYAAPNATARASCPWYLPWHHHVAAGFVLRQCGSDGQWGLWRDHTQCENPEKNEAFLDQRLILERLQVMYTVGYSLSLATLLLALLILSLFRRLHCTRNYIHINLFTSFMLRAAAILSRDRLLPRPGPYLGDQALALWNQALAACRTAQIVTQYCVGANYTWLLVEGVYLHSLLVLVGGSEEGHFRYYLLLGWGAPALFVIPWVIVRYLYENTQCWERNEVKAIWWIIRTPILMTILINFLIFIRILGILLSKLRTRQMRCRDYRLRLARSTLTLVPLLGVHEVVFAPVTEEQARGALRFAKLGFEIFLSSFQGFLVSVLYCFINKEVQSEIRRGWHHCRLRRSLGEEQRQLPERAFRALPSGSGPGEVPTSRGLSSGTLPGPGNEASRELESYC

- pEC50, cAMP accumulation (pEC50 (-log M)): 11.8
Substance: hGIP (from UniProt P09681 52-93) (peptide)

— US20240228572A1, “LONG ACTING GLUCAGON RECEPTOR SELECTIVE PEPTIDES AND METHODS OF USE” (i2o Therapeutics, Inc., priority 2020, published 2024)
